Experimental data as given in patent US20230265183A1 (MABWELL SHANGHAI BIOSCIENCE, published 2023).
Where two headings read alike, the source gives them in different places.

Columns and labels:
His-tagged human NECTIN4 = target: T1, His-tagged human NECTIN4 (human, UniProt Q96NY8 32-349); test: ELISA, antibody without cyno serum, plate coated with 0.2 µg/ml antigen, HRP goat anti-human IgG, OD450. The sheet does not say which of the two plates of Example 13 is drawn
T1 construct: Antigen of the BIAcore assay; also called antigen; recombinant NECTIN4 protein; not shown: His tag
T1 sequence: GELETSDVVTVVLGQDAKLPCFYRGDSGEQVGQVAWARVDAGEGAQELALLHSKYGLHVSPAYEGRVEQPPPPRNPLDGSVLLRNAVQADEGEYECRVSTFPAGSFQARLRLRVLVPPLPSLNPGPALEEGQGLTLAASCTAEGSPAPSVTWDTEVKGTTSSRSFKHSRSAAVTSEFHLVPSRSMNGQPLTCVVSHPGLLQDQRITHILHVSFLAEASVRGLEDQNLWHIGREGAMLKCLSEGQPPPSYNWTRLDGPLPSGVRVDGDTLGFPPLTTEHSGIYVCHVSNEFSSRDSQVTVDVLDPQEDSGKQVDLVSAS

human Nectin-4 [1] = target: T2, human Nectin-4 (human, UniProt Q96NY8 32-510); test: FACS on BT474 cells
T2 construct: whole, on cells; Cell-surface target of the FACS, endocytosis and proliferation assays (CHO-huNectin4 S8 cells, BT474 cells); the assay field says which cells; also called huNectin4; PVRL4
T2 sequence (looked up): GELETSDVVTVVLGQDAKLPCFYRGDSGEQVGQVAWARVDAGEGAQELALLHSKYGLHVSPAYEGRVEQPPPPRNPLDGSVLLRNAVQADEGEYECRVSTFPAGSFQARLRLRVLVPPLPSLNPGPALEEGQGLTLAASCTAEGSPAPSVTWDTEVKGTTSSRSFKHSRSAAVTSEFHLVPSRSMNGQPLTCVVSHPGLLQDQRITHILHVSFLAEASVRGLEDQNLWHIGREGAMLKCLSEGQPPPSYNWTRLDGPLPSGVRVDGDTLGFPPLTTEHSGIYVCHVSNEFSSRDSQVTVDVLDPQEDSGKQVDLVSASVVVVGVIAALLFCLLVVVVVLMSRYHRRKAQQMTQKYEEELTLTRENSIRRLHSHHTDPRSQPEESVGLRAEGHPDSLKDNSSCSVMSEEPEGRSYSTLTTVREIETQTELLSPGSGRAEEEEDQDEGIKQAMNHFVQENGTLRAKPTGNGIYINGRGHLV
Protocol: (§1) The solutions of different concentrations were added to 384-well plates, 10 µl per well.
(§2) BT474 cells (breast cancer cells) expressing Nectin-4 on the cell surface were collected by centrifugation at 100 g at room temperature for 5 minutes, and then the cells were washed with PBS containing 0.5% BSA once and were centrifuged at 100 g at room temperature for 5 minutes. […] After incubation at 4° C. for 1 hour, fluorescently labeled goat anti-human IgG secondary antibody was added. After continued incubation at 4° C. for 1 hour, mean fluorescence readings of the cell populations were analyzed by a flow cytometer.

human Nectin-4 [2] = target: T2, human Nectin-4; test: FACS on BT474 cells; remark: listed apart in the source
Protocol: as §1, §2
The experiment results of the binding of engineered humanized molecules of the present disclosure to BT474 cells by FACS assay are shown in panels 3B and 3C in FIG. 3 and Tables 6 and 7.

B1: 42D20 hz10 (antibody, V domains shown)
VH: QVQLQESGPGLVKPSETLSLTCTVSGFSLIDYGVSWIRQPPGKGLEWIGVIWGDGKIYYNSVLKSRVTISKDNSKSQVSLKLSSVTAADTAVYYCAKQGGLLFYAMDYWGQGTLVTVSS
VL: DIVMTQSPDSLAVSLGERATINCKSSQSLLNSYSQKNYLAWYQQKPGQPPKLLIYFASTRESGVPDRFSGSGSGTDFTLTISSLQAEDVAVYYCQQHYNTPFTFGAGTKLELKR
notes: Humanized
B1 was tested, and the “EC50 (read off the curve)” value (His-tagged human NECTIN4) was roughly 0.1 µg/mL.

B2: Enfortumab (antibody, human IgG1, kappa, V domains shown)
VH: EVQLVESGGGLVQPGGSLRLSCAASGFTFSSYNMNWVRQAPGKGLEWVSYISSSSSTIYYADSVKGRFTISRDNAKNSLSLQMNSLRDEDTAVYYCARAYYYGMDVWGQGTTVTVSS
VL: DIQMTQSPSSVSASVGDRVTITCRASQGISGWLAWYQQKPGKAPKFLIYAASTLQSGVPSRFSGSGSGTDFTLTISSLQPEDFATYYCQQANSFPPTFGGGTKVEIKR
notes: also called control antibody Enfortumab
For B2, the EC50 (human Nectin-4 [1]) was 29.6 µg/mL and the EC50 (human Nectin-4 [2]) was 57.2 µg/mL.
